The experiment has as its target pre-formed paclitaxel-stabilized microtubules (tubulin isolated from porcine brain) (porcine) (UniProt P02550). Briefly: co-sedimentation; pre-formed paclitaxel-stabilized MTs (100 ug/ml tubulin) incubated 30 min at room temperature with 250 ug/ml protein in General tubulin buffer (80 mM PIPES, 0.5 mM EGTA, 2 mM MgCl2, pH 6.9) with 1 mM GTP and 5% glycerol; spun through a 60% glycerol cushion at 100,000 x g for 40 min; band intensity in pellet and supernatant on SDS-PAGE, 5 repeats.
Chain of UniProt P02550 (P02550 whole entry, looked up): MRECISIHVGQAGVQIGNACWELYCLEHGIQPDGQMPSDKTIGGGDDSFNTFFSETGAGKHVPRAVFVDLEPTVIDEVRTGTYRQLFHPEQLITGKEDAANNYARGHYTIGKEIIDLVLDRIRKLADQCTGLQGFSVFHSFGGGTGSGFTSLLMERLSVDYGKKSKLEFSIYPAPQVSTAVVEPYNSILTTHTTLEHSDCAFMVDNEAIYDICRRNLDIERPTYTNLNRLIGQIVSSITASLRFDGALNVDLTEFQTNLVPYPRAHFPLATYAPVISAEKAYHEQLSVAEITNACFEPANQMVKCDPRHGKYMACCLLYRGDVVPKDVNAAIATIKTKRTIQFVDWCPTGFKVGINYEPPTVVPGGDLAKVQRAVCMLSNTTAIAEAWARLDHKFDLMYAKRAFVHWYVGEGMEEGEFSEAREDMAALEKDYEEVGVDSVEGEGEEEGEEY

Take “microtubule-associated protein fraction (MAPF)”: the percent of protein pelleted with MTs amounted to 78%.

For the origin of these results see publication PMC7278352.
